From IntAct's records for PubMed 19851283 come the findings set out here.

The chains are these.
B1: Transcription factor HFR1 (Arabidopsis thaliana (Mouse-ear cress)), Q9FE22 (parent)
chain: MSNNQAFMELGWRNDVGSLAVKDQGMMSERARSDEDRLINGLKWGYGYFDHDQTDNYLQIVPEIHKEVENAKEDLLVVVPDEHSETDDHHHIKDFSERSDHRFYLRNKHENPKKRRIQVLSSDDESEEFTREVPSVTRKGSKRRRRDEKMSNKMRKLQQLVPNCHKTDKVSVLDKTIEYMKNLQLQLQMMSTVGVNPYFLPATLGFGMHNHMLTAMASAHGLNPANHMMPSPLIPALNWPLPPFTNISFPHSSSQSLFLTTSSPASSPQSLHGLVPYFPSFLDFSSHAMRRL
partner: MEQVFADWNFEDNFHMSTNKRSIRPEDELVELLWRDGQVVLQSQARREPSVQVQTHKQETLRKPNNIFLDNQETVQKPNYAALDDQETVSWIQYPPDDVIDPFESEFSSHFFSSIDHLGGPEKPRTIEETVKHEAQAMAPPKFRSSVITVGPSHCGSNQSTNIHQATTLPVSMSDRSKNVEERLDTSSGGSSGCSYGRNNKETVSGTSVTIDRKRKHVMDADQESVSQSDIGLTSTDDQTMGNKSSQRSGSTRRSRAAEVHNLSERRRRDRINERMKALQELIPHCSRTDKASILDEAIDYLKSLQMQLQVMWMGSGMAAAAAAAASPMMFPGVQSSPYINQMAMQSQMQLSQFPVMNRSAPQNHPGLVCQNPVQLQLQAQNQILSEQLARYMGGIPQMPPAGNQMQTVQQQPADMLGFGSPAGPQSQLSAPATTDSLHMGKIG
B2: Transcription factor HFR1 (Arabidopsis thaliana (Mouse-ear cress)), Q9FE22 (parent)
chain: B1 chain
partner: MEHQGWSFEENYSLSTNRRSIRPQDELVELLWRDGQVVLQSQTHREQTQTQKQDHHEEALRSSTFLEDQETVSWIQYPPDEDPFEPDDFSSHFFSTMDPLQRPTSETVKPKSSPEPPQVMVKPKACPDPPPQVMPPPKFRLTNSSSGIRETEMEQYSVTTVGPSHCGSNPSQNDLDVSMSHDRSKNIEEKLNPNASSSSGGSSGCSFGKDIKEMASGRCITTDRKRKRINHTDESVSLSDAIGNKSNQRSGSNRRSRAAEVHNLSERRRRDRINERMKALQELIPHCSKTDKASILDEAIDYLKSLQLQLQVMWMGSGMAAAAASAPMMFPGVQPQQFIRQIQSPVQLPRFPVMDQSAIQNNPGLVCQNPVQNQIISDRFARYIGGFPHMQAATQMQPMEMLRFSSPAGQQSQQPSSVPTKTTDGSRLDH

In the first test the parent is B1. To be noted: with pif5_arath PIF5, Q84LH8.
For MSNNQAFMELGWRNDVGSLAVKDQGMMSERARSDEDRLINGLKWGYGYFDHDQTDNYLQIVPEIHKEVENAKEDLLVVVPDEHSETDDHHHIKDFSERSDHRFYLRNKHENPKKRRIQVLSSDDESEEFTREVPSVTRKGSKRRRRDEKMSNKMRKLQQLVPNCHKTDKVSVEDKTIEYMKNLQLQLQMMSTVGVNPYFLPATLGFGMHNHMLTAMASAHGLNPANHMMPSPLIPALNWPLPPFTNISFPHSSSQSLFLTTSSPASSPQSLHGLVPYFPSFLDFSSHAMRRL [L173E], the “effect of a mutation on the interaction” value is “disrupting interaction”.

Regarding MSNNQAFMELGWRNDVGSLAVKDQGMMSERARSDEDRLINGLKWGYGYFDHDQTDNYLQIVPEIHKEVENAKEDLLVVVPDEHSETDDHHHIKDFSERSDHRFYLRNKHENPKKRRIQVLSSDDESEEFTREVPSVTRKGSKRRRRDEKMSNKMRKLQQLVPNCHKTDKVSDLDKTIEYMKNLQLQLQMMSTVGVNPYFLPATLGFGMHNHMLTAMASAHGLNPANHMMPSPLIPALNWPLPPFTNISFPHSSSQSLFLTTSSPASSPQSLHGLVPYFPSFLDFSSHAMRRL [V172D], the “effect of a mutation on the interaction” value is listed as “disrupting interaction”.

In the next test the parent is B2. Conditions: with pif4_arath PIF4, Q8W2F3.
Regarding MSNNQAFMELGWRNDVGSLAVKDQGMMSERARSDEDRLINGLKWGYGYFDHDQTDNYLQIVPEIHKEVENAKEDLLVVVPDEHSETDDHHHIKDFSERSDHRFYLRNKHENPKKRRIQVLSSDDESEEFTREVPSVTRKGSKRRRRDEKMSNKMRKLQQLVPNCHKTDKVSDLDKTIEYMKNLQLQLQMMSTVGVNPYFLPATLGFGMHNHMLTAMASAHGLNPANHMMPSPLIPALNWPLPPFTNISFPHSSSQSLFLTTSSPASSPQSLHGLVPYFPSFLDFSSHAMRRL [V172D], the “effect of a mutation on the interaction” value is recorded as “disrupting interaction”. For MSNNQAFMELGWRNDVGSLAVKDQGMMSERARSDEDRLINGLKWGYGYFDHDQTDNYLQIVPEIHKEVENAKEDLLVVVPDEHSETDDHHHIKDFSERSDHRFYLRNKHENPKKRRIQVLSSDDESEEFTREVPSVTRKGSKRRRRDEKMSNKMRKLQQLVPNCHKTDKVSVEDKTIEYMKNLQLQLQMMSTVGVNPYFLPATLGFGMHNHMLTAMASAHGLNPANHMMPSPLIPALNWPLPPFTNISFPHSSSQSLFLTTSSPASSPQSLHGLVPYFPSFLDFSSHAMRRL [L173E], the “effect of a mutation on the interaction” value is recorded as “disrupting interaction”.
